From publication PMC10200994

Target: T1, STAT1 (unphosphorylated, wild-type), fluorophore fusion, P42224
T1 chain: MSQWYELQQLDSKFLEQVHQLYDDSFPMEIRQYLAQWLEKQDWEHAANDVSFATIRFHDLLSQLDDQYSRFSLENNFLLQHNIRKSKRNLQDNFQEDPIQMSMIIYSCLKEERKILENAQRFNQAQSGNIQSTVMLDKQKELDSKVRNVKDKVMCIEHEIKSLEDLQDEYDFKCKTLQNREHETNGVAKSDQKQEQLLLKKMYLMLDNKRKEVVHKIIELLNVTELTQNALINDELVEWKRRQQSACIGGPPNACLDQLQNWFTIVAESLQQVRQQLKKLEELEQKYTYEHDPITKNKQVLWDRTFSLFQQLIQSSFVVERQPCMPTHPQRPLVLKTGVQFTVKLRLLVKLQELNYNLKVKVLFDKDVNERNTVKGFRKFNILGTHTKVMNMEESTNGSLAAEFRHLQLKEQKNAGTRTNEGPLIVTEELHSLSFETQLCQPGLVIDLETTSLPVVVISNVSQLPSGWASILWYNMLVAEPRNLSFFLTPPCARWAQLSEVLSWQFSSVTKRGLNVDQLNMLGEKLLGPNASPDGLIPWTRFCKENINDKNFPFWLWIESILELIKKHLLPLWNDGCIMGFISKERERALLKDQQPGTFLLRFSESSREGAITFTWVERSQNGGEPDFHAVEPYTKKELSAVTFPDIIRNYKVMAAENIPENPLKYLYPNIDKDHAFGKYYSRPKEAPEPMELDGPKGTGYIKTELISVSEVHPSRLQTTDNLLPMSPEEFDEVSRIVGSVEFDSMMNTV
Experiment: co-localization assay (relocalisation of a test protein by a compartment-targeted bait, fluorescence microscopy); HeLa cells co-expressing bait (STAT-NES or STAT-NLS, or wild-type STAT2 with its own export activity; green) and test protein without heterologous signal (red); no cytokine; fixed 20 h after transfection; Pearson correlation coefficient rP in cells with equimolar to 4-fold excess of bait
Settings: remark: other sources report otherwise

B1: STAT1 (unphosphorylated, wild-type), fluorophore fusion, P42224 1-750 (natural protein)
chain: MSQWYELQQLDSKFLEQVHQLYDDSFPMEIRQYLAQWLEKQDWEHAANDVSFATIRFHDLLSQLDDQYSRFSLENNFLLQHNIRKSKRNLQDNFQEDPIQMSMIIYSCLKEERKILENAQRFNQAQSGNIQSTVMLDKQKELDSKVRNVKDKVMCIEHEIKSLEDLQDEYDFKCKTLQNREHETNGVAKSDQKQEQLLLKKMYLMLDNKRKEVVHKIIELLNVTELTQNALINDELVEWKRRQQSACIGGPPNACLDQLQNWFTIVAESLQQVRQQLKKLEELEQKYTYEHDPITKNKQVLWDRTFSLFQQLIQSSFVVERQPCMPTHPQRPLVLKTGVQFTVKLRLLVKLQELNYNLKVKVLFDKDVNERNTVKGFRKFNILGTHTKVMNMEESTNGSLAAEFRHLQLKEQKNAGTRTNEGPLIVTEELHSLSFETQLCQPGLVIDLETTSLPVVVISNVSQLPSGWASILWYNMLVAEPRNLSFFLTPPCARWAQLSEVLSWQFSSVTKRGLNVDQLNMLGEKLLGPNASPDGLIPWTRFCKENINDKNFPFWLWIESILELIKKHLLPLWNDGCIMGFISKERERALLKDQQPGTFLLRFSESSREGAITFTWVERSQNGGEPDFHAVEPYTKKELSAVTFPDIIRNYKVMAAENIPENPLKYLYPNIDKDHAFGKYYSRPKEAPEPMELDGPKGTGYIKTELISVSEVHPSRLQTTDNLLPMSPEEFDEVSRIVGSVEFDSMMNTV
Pearson correlation coefficient rP (co-localization): > 0.94
